The values below come from paper PMC10747188.

For data set [1], the target named is T1, MFSD2a, endogenous on human cell lines (human (endogenous in HEK293T, Jurkat, HUVEC, U87-MG)) (UniProt Q8NA29).
T1 sequence: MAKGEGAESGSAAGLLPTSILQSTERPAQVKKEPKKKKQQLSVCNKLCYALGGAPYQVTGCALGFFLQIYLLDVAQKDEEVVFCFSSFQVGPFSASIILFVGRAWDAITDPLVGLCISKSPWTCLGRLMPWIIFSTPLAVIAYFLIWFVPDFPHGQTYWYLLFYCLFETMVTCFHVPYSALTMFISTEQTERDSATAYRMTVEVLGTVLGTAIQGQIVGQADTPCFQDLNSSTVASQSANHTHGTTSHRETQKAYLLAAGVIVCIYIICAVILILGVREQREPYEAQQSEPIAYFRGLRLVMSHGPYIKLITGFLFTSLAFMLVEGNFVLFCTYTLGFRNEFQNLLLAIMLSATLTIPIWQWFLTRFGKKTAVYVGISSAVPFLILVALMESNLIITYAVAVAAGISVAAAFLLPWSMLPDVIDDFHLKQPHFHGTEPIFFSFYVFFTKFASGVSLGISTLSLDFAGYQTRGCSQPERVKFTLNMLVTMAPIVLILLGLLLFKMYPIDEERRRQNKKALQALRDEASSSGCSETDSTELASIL

For data set [2], the target named is T2, MFSD2a N217Q-V5, expressed in HeLa cells (UniProt Q8NA29).
T2 sequence: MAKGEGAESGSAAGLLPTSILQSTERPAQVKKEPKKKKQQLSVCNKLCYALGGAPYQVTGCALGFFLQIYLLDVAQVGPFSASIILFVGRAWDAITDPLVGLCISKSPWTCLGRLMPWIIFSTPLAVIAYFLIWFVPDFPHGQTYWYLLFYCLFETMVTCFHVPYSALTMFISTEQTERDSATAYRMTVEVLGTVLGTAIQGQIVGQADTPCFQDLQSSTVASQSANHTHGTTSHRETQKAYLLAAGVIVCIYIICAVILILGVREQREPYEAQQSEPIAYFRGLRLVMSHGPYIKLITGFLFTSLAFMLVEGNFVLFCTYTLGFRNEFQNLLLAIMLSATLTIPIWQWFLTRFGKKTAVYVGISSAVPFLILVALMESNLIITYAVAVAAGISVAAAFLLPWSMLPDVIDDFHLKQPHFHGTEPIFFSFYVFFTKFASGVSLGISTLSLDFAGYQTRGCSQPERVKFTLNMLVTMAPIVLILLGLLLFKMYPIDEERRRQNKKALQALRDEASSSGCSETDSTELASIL

Data set [3] has as its target T3, MFSD2a N227Q-V5, expressed in HeLa cells (UniProt Q8NA29).
T3 sequence: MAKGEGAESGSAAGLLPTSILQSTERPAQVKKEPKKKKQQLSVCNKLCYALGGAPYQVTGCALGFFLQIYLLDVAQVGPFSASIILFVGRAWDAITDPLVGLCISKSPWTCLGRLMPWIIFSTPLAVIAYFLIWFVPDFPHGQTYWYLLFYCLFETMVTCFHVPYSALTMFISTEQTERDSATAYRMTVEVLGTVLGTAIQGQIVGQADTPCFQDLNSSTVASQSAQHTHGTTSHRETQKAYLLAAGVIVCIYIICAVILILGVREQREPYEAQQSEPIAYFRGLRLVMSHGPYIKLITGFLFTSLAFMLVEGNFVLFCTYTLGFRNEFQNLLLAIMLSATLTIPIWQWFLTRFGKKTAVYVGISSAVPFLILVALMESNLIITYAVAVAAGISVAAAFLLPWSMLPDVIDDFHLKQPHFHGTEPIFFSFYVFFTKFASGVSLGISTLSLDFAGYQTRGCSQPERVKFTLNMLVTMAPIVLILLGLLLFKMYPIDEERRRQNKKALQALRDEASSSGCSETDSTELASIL

For data set [4], the target named is simian MFSD2a, endogenous on Cos-7 cells (simian (endogenous in Cos-7)).
Data set [5] addresses T1, MFSD2a, endogenous on human cell lines (human (endogenous in HEK293T, Jurkat, HUVEC, U87-MG)). The source holds these as a separate data set.
For data set [6] the target is unchanged. The source holds these as a separate data set.
Data set [7] is described as follows: anti-V5 immunofluorescence, confocal, Cos-7 cells. The settings on record: glycan lost; control: wild-type MFSD2a.
Data set [8] can be described thus: anti-V5 Western blot of transfected cells. The settings on record: glycan lost; control: wild-type MFSD2a. (In general: In western blotting, separated proteins are transferred to a membrane and probed.)
The nature of data set [9]: luciferase infection assay in transfected HeLa cells. The settings on record: glycan lost; control: wild-type MFSD2a.

B1: Syncytin-2, expressed in HEK293T cells (cell fusion assay) (natural protein)
chain: AYRHPDFPLLEKAQQLLQSTGSPYSTNCWLCTSSSTETPGTAYPASPREWTSIEAELHISYRWDPNLKGLMRPANSLLSTVKQDFPDIRQKPPIFGPIFTNINLMGIAPICVMAKRKNGTNVGTLPSTVCNVTFTVDSNQQTYQTYTHNQFRHQPRFPKPPNITFPQGTLLDKSSRFCQGRPSSCSTRNFWFRPADYNQCLQISNLSSTAEWVLLDQTRNSLFWENKTKGANQSQTPCVQVLAGMTIATSYLGISAVSEFFGTSLTPLFHFHISTCLKTQGAFYICGQSIHQCLPSNWTGTCTIGYVTPDIFIAPGNLSLPIPIYGNSPLPRVRRAIHFIPLLAGLGILAGTGTGIAGITKASLTYSQLSKEIANNIDTMAKALTTMQEQIDSLAAVVLQNRRGLDMLTAAQGGICLALDEKCCFWVNQSGKVQDNIRQLLNQASSLRERATQGWLNWEGTWKWFSWVLPLTGPLVSLLLLLLFGPCLLNLITQFVSSRLQAIKLQTNLSAGRHPRNIQESPF
As to B1, in data set [1], the cellular fusion index of Syn-2-transfected HEK293T cells with 4 µM recombinant Gal-1 for 24 h (8.56% +/− 0.6 with PBS; 5.76% +/− 0.22 with Gal-1 and 50 mM lactose) is 17.5%.

B2: Syncytin-2 (Flag-tagged), on pseudotyped NL4.3 virions (natural protein)
chain: AYRHPDFPLLEKAQQLLQSTGSPYSTNCWLCTSSSTETPGTAYPASPREWTSIEAELHISYRWDPNLKGLMRPANSLLSTVKQDFPDIRQKPPIFGPIFTNINLMGIAPICVMAKRKNGTNVGTLPSTVCNVTFTVDSNQQTYQTYTHNQFRHQPRFPKPPNITFPQGTLLDKSSRFCQGRPSSCSTRNFWFRPADYNQCLQISNLSSTAEWVLLDQTRNSLFWENKTKGANQSQTPCVQVLAGMTIATSYLGISAVSEFFGTSLTPLFHFHISTCLKTQGAFYICGQSIHQCLPSNWTGTCTIGYVTPDIFIAPGNLSLPIPIYGNSPLPRVRRAIHFIPLLAGLGILAGTGTGIAGITKASLTYSQLSKEIANNIDTMAKALTTMQEQIDSLAAVVLQNRRGLDMLTAAQGGICLALDEKCCFWVNQSGKVQDNIRQLLNQASSLRERATQGWLNWEGTWKWFSWVLPLTGPLVSLLLLLLFGPCLLNLITQFVSSRLQAIKLQTNLSAGRHPRNIQESPF
In turn, B2 returned a fold-change in infectivity (luciferase) of Syn-2-pseudotyped viruses on N217Q-MFSD2a-transfected HeLa cells with Gal-1 against control; counteracted by lactose in data set [2] of 10.8 fold. In data set [3], this molecule came in with a fold-change in infectivity (luciferase) of Syn-2-pseudotyped viruses on N227Q-MFSD2a-transfected HeLa cells with Gal-1 against control; counteracted by lactose of 10.2 fold. Also, the fold-change in infectivity (luciferase) of Syn-2-pseudotyped viruses on Cos-7 cells with 4 µM Gal-1 against virus only; abolished by 50 mM lactose in [4] stood at 6.93 fold. In [5], the fold-change in infectivity (luciferase) of Syn-2-pseudotyped viruses on HEK293T cells with 4 µM Gal-1 against virus only; abolished by 50 mM lactose was 5.51 fold. In data set [6], this molecule displayed a fold-change in infectivity (luciferase) of Syn-2-pseudotyped viruses on HUVEC cells with 4 µM Gal-1 against virus only; inhibited by 50 mM lactose of 33.4 fold, a fold-change in infectivity (luciferase) of Syn-2-pseudotyped viruses on Jurkat cells with 4 µM Gal-1 against virus only; inhibited by 50 mM lactose of 14.1 fold and a fold-change in infectivity (luciferase) of Syn-2-pseudotyped viruses on U87-MG cells with 4 µM Gal-1 against virus only; inhibited by 50 mM lactose of 6.76 fold.

B3: MFSD2a: N217Q (protein)
parent chain: MAKGEGAESGSAAGLLPTSILQSTERPAQVKKEPKKKKQQLSVCNKLCYALGGAPYQVTGCALGFFLQIYLLDVAQVGPFSASIILFVGRAWDAITDPLVGLCISKSPWTCLGRLMPWIIFSTPLAVIAYFLIWFVPDFPHGQTYWYLLFYCLFETMVTCFHVPYSALTMFISTEQTERDSATAYRMTVEVLGTVLGTAIQGQIVGQADTPCFQDLNSSTVASQSANHTHGTTSHRETQKAYLLAAGVIVCIYIICAVILILGVREQREPYEAQQSEPIAYFRGLRLVMSHGPYIKLITGFLFTSLAFMLVEGNFVLFCTYTLGFRNEFQNLLLAIMLSATLTIPIWQWFLTRFGKKTAVYVGISSAVPFLILVALMESNLIITYAVAVAAGISVAAAFLLPWSMLPDVIDDFHLKQPHFHGTEPIFFSFYVFFTKFASGVSLGISTLSLDFAGYQTRGCSQPERVKFTLNMLVTMAPIVLILLGLLLFKMYPIDEERRRQNKKALQALRDEASSSGCSETDSTELASIL
Take B3: in [7], the localisation_or_trafficking result was “no change”. The expression_or_secretion entry in data set [8] is “no change”. Further, in data set [9], the “other: galectin-1 enhancement of Syn-2 pseudovirus infectivity, fold_change” value is “no change, 10.8-fold +/− 3.96 vs 9.3 +/− 1.52”.

B4: MFSD2a: N227Q (protein)
parent chain: MAKGEGAESGSAAGLLPTSILQSTERPAQVKKEPKKKKQQLSVCNKLCYALGGAPYQVTGCALGFFLQIYLLDVAQVGPFSASIILFVGRAWDAITDPLVGLCISKSPWTCLGRLMPWIIFSTPLAVIAYFLIWFVPDFPHGQTYWYLLFYCLFETMVTCFHVPYSALTMFISTEQTERDSATAYRMTVEVLGTVLGTAIQGQIVGQADTPCFQDLNSSTVASQSANHTHGTTSHRETQKAYLLAAGVIVCIYIICAVILILGVREQREPYEAQQSEPIAYFRGLRLVMSHGPYIKLITGFLFTSLAFMLVEGNFVLFCTYTLGFRNEFQNLLLAIMLSATLTIPIWQWFLTRFGKKTAVYVGISSAVPFLILVALMESNLIITYAVAVAAGISVAAAFLLPWSMLPDVIDDFHLKQPHFHGTEPIFFSFYVFFTKFASGVSLGISTLSLDFAGYQTRGCSQPERVKFTLNMLVTMAPIVLILLGLLLFKMYPIDEERRRQNKKALQALRDEASSSGCSETDSTELASIL
For the molecule B4, the localisation_or_trafficking entry in [7] is listed as “no change”. Also, the expression_or_secretion result in data set [8] was “no change”. In addition, the “other: galectin-1 enhancement of Syn-2 pseudovirus infectivity, fold_change” value in data set [9] is given as “no change, 10.2-fold +/− 4.75 vs 9.3 +/− 1.52”.

B5: MFSD2a: double mutant (protein)
parent chain: MAKGEGAESGSAAGLLPTSILQSTERPAQVKKEPKKKKQQLSVCNKLCYALGGAPYQVTGCALGFFLQIYLLDVAQVGPFSASIILFVGRAWDAITDPLVGLCISKSPWTCLGRLMPWIIFSTPLAVIAYFLIWFVPDFPHGQTYWYLLFYCLFETMVTCFHVPYSALTMFISTEQTERDSATAYRMTVEVLGTVLGTAIQGQIVGQADTPCFQDLNSSTVASQSANHTHGTTSHRETQKAYLLAAGVIVCIYIICAVILILGVREQREPYEAQQSEPIAYFRGLRLVMSHGPYIKLITGFLFTSLAFMLVEGNFVLFCTYTLGFRNEFQNLLLAIMLSATLTIPIWQWFLTRFGKKTAVYVGISSAVPFLILVALMESNLIITYAVAVAAGISVAAAFLLPWSMLPDVIDDFHLKQPHFHGTEPIFFSFYVFFTKFASGVSLGISTLSLDFAGYQTRGCSQPERVKFTLNMLVTMAPIVLILLGLLLFKMYPIDEERRRQNKKALQALRDEASSSGCSETDSTELASIL
With B5, the expression_or_secretion result in data set [8] is “decreases”.
